Test results published in publication doi:10.1101/2023.09.30.560296 (bioRxiv, 2023).
“And” between values parts separate entries of the source, which are not always exact repeats. Equal values may be shown once. Square brackets hold non-standard residues; d marks the D form. Ends that are not written are not given here. * marks the point of attachment. FITC = O=C1OC2(c3ccc(O)cc3Oc3cc(O)ccc32)c2ccc(NC(=S)*)cc21; pS = N[C@@H](COP(=O)(O)O)C(=O)O; Ahx = NCCCCCC(=O)O

Columns and labels:
GST-fused LC3B [1] = target: T1, GST-fused LC3B (UniProt Q9GZQ8 1-120); assay: Microfluidic Diffusional Sizing
GST-fused LC3B [2] = target: T1, GST-fused LC3B; assay: SPR

{FITC-Ahx}-NSSGSSED[pS]FVEIRMAE [FITC-Ahx OPTN LIR peptide 169-185 (pS177)]
Kd (GST-fused LC3B [1]): 14.3 µM and 13.7 µM

{FITC-Ahx}-NSSGSSEDSWVEIRMAE [FITC-Ahx OPTN LIR peptide 169-185 (F178W)]
Kd (GST-fused LC3B [1]): 15.9 µM

{FITC-Ahx}-NSSGSSEDDFVEIRMAE [FITC-Ahx OPTN LIR peptide 169-185 (S177D)]
Kd (GST-fused LC3B [2]): 36.7 µM | Kd (GST-fused LC3B [1]): 44.8 µM

{FITC-Ahx}-NSSGSSEDEFVEIRMAE [FITC-Ahx OPTN LIR peptide 169-185 (S177E)]
Kd (GST-fused LC3B [1]): 42.8 µM

{FITC-Ahx}-NSSGSSED[pS]AVEIRMAE [FITC-Ahx OPTN LIR peptide 169-185 (pS177 F178A)]
Kd (GST-fused LC3B [2]): > 100 µM | fold increase of Kd against pS177 (GST-fused LC3B [1]): 5 fold

{FITC-Ahx}-NSSGSSED[pS]WVEIRMAE [FITC-Ahx OPTN LIR peptide 169-185 (pS177 F178W)]
fold increase of binding affinity against pS177 (GST-fused LC3B [1]): 7 fold

{FITC-Ahx}-NSSGSSED[pS]FVEIRAAE [FITC-Ahx OPTN LIR peptide 169-185 (pS177 M183A)]
Kd (GST-fused LC3B [2]): 36.7 µM
